Experimental data reported in the Human Domainome abundance scans (Beltran et al. 2025).
± gives the uncertainty stated by the source.

Assay: abundance fitness (aPCA) (normalised: wild type 0, dead -1); higher = more abundant; growth selection in yeast, the domain comes from the species named
Conditions: Homo sapiens

Substance | abundance fitness
E3 ubiquitin-protein ligase NEDD4-like L226P, Q96PU5 | 0.104 ± 0.059
E3 ubiquitin-protein ligase NEDD4-like L226R, Q96PU5 | -0.007 ± 0.065
E3 ubiquitin-protein ligase NEDD4-like L226S, Q96PU5 | 0.034 ± 0.07
E3 ubiquitin-protein ligase NEDD4-like L226V, Q96PU5 | -0.11 ± 0.063
E3 ubiquitin-protein ligase NEDD4-like L226W, Q96PU5 | -0.309 ± 0.069
E3 ubiquitin-protein ligase NEDD4-like L226Y, Q96PU5 | -0.043 ± 0.091
E3 ubiquitin-protein ligase NEDD4-like M227A, Q96PU5 | -0.077 ± 0.064
E3 ubiquitin-protein ligase NEDD4-like M227C, Q96PU5 | -0.05 ± 0.059
E3 ubiquitin-protein ligase NEDD4-like M227D, Q96PU5 | 0.065 ± 0.12
E3 ubiquitin-protein ligase NEDD4-like M227G, Q96PU5 | -0.039 ± 0.064
E3 ubiquitin-protein ligase NEDD4-like M227H, Q96PU5 | 0.092 ± 0.077
E3 ubiquitin-protein ligase NEDD4-like M227I, Q96PU5 | -0.135 ± 0.073
E3 ubiquitin-protein ligase NEDD4-like M227K, Q96PU5 | -0.015 ± 0.093
E3 ubiquitin-protein ligase NEDD4-like M227L, Q96PU5 | -0.027 ± 0.067
E3 ubiquitin-protein ligase NEDD4-like M227N, Q96PU5 | -0.024 ± 0.099
E3 ubiquitin-protein ligase NEDD4-like M227P, Q96PU5 | 0.145 ± 0.09
E3 ubiquitin-protein ligase NEDD4-like M227Q, Q96PU5 | -0.068 ± 0.1
E3 ubiquitin-protein ligase NEDD4-like M227R, Q96PU5 | 0.001 ± 0.054
E3 ubiquitin-protein ligase NEDD4-like M227S, Q96PU5 | 0.055 ± 0.063
E3 ubiquitin-protein ligase NEDD4-like M227T, Q96PU5 | -0.022 ± 0.089
E3 ubiquitin-protein ligase NEDD4-like M227V, Q96PU5 | -0.285 ± 0.068
E3 ubiquitin-protein ligase NEDD4-like M227W, Q96PU5 | -0.313 ± 0.07
E3 ubiquitin-protein ligase NEDD4-like M227Y, Q96PU5 | -0.184 ± 0.082

Substance | abundance fitness
E3 ubiquitin-protein ligase NEDD4-like N205A, Q96PU5 | -0.057 ± 0.06
E3 ubiquitin-protein ligase NEDD4-like N205C, Q96PU5 | -0.142 ± 0.059
E3 ubiquitin-protein ligase NEDD4-like N205D, Q96PU5 | -0.085 ± 0.07
E3 ubiquitin-protein ligase NEDD4-like N205E, Q96PU5 | -0.105 ± 0.05
E3 ubiquitin-protein ligase NEDD4-like N205F, Q96PU5 | -0.544 ± 0.11
E3 ubiquitin-protein ligase NEDD4-like N205G, Q96PU5 | -0.321 ± 0.054
E3 ubiquitin-protein ligase NEDD4-like N205H, Q96PU5 | -0.062 ± 0.11
E3 ubiquitin-protein ligase NEDD4-like N205I, Q96PU5 | -0.111 ± 0.098
E3 ubiquitin-protein ligase NEDD4-like N205K, Q96PU5 | 0.033 ± 0.097
E3 ubiquitin-protein ligase NEDD4-like N205L, Q96PU5 | -0.196 ± 0.07
E3 ubiquitin-protein ligase NEDD4-like N205M, Q96PU5 | -0.109 ± 0.055
E3 ubiquitin-protein ligase NEDD4-like N205P, Q96PU5 | -0.012 ± 0.093
E3 ubiquitin-protein ligase NEDD4-like N205Q, Q96PU5 | -0.087 ± 0.069
E3 ubiquitin-protein ligase NEDD4-like N205R, Q96PU5 | -0.013 ± 0.054
E3 ubiquitin-protein ligase NEDD4-like N205T, Q96PU5 | 0.029 ± 0.092
E3 ubiquitin-protein ligase NEDD4-like N205V, Q96PU5 | -0.232 ± 0.068
E3 ubiquitin-protein ligase NEDD4-like N205Y, Q96PU5 | 0.049 ± 0.094
E3 ubiquitin-protein ligase NEDD4-like N213A, Q96PU5 | -0.382 ± 0.071
E3 ubiquitin-protein ligase NEDD4-like N213C, Q96PU5 | -0.042 ± 0.14
E3 ubiquitin-protein ligase NEDD4-like N213D, Q96PU5 | -0.206 ± 0.075
E3 ubiquitin-protein ligase NEDD4-like N213E, Q96PU5 | -0.404 ± 0.11
E3 ubiquitin-protein ligase NEDD4-like N213F, Q96PU5 | -0.507 ± 0.11
E3 ubiquitin-protein ligase NEDD4-like N213G, Q96PU5 | -0.326 ± 0.084

Substance | abundance fitness
E3 ubiquitin-protein ligase NEDD4-like N213K, Q96PU5 | -0.752 ± 0.18
E3 ubiquitin-protein ligase NEDD4-like N213L, Q96PU5 | -0.709 ± 0.1
E3 ubiquitin-protein ligase NEDD4-like N213M, Q96PU5 | -0.441 ± 0.11
E3 ubiquitin-protein ligase NEDD4-like N213P, Q96PU5 | -0.383 ± 0.24
E3 ubiquitin-protein ligase NEDD4-like N213Q, Q96PU5 | -0.295 ± 0.089
E3 ubiquitin-protein ligase NEDD4-like N213R, Q96PU5 | -0.56 ± 0.069
E3 ubiquitin-protein ligase NEDD4-like N213S, Q96PU5 | 0.213 ± 0.12
E3 ubiquitin-protein ligase NEDD4-like N213T, Q96PU5 | -0.428 ± 0.1
E3 ubiquitin-protein ligase NEDD4-like N213V, Q96PU5 | -0.88 ± 0.13
E3 ubiquitin-protein ligase NEDD4-like N213W, Q96PU5 | -0.753 ± 0.1
E3 ubiquitin-protein ligase NEDD4-like N213Y, Q96PU5 | -0.349 ± 0.39
E3 ubiquitin-protein ligase NEDD4-like N215A, Q96PU5 | -0.029 ± 0.072
E3 ubiquitin-protein ligase NEDD4-like N215C, Q96PU5 | -0.178 ± 0.084
E3 ubiquitin-protein ligase NEDD4-like N215D, Q96PU5 | 0.015 ± 0.086
E3 ubiquitin-protein ligase NEDD4-like N215E, Q96PU5 | -0.086 ± 0.077
E3 ubiquitin-protein ligase NEDD4-like N215F, Q96PU5 | -0.169 ± 0.1
E3 ubiquitin-protein ligase NEDD4-like N215G, Q96PU5 | -0.036 ± 0.05
E3 ubiquitin-protein ligase NEDD4-like N215H, Q96PU5 | -0.031 ± 0.1
E3 ubiquitin-protein ligase NEDD4-like N215I, Q96PU5 | -0.077 ± 0.084
E3 ubiquitin-protein ligase NEDD4-like N215K, Q96PU5 | 0.165 ± 0.098
E3 ubiquitin-protein ligase NEDD4-like N215L, Q96PU5 | -0.205 ± 0.07
E3 ubiquitin-protein ligase NEDD4-like N215M, Q96PU5 | -0.077 ± 0.062
